Assay results as given in patent US20080020978A1 (Amgen, published 2008).
Read-outs that look alike come from different tables or passages of the source. Ends that are not written are not given here.

How the values were obtained:
[1] = molecular target: T1, rat ortholog of the CGRP1 receptor (rat, UniProt Q63118 24-464; Q9JJ74 27-148, limits assumed); experiment: cell-based or functional assay
[2] = molecular target: T2, CGRP1 receptor (CRLR/RAMP1 complex) of human neuroblastoma SK-N-MC cells (human, UniProt Q16602 23-461; O60894 27-148); experiment: cell-based or functional assay
[3] = molecular target: T1, rat ortholog of the CGRP1 receptor; experiment: cell-based or functional assay; remark: listed apart in the source
[4] = molecular target: T2, CGRP1 receptor (CRLR/RAMP1 complex) of …; experiment: 125I-hαCGRP competition, SK-N-MC membranes
Experimental: CGRP₁ binding experiments. […] The plates were incubated at room temperature for 2 hour with shaking at 60 rpm, then the contents of each well were filtered over 0.5% polyethyleneimine (PEI)-treated (at least one hour) GF/C 96-well filter plates. The GF/C filter plates were washed 6 times with ice-cold 50 mM Tris, pH 7.5 and dried in an oven at 55 C for 1 hour. The bottoms of the GF/C plates were then sealed, and 40 μl Microscint™ 20 was added to each well, then the tops of the GF/C plates were sealed with TopSeal™-A, a press-on adhesive sealing film, and the GF/C plates were counted with TopCount NXT (Packard). The data were analyzed by using ActivityBase (IDBS) or Prizm (GraphPad) software.

[5] = molecular target: T2, CGRP1 receptor (CRLR/RAMP1 complex) of …; experiment: cell-based or functional assay; remark: listed apart in the source
[6] = molecular target: T2, CGRP1 receptor (CRLR/RAMP1 complex) of …; experiment: cell-based or functional assay; remark: listed apart in the source
[7] = molecular target: T2, CGRP1 receptor (CRLR/RAMP1 complex) of …; experiment: cell-based or functional assay; remark: listed apart in the source

T1 sequence (Q63118 24-464 limits assumed, chain 1 of 2): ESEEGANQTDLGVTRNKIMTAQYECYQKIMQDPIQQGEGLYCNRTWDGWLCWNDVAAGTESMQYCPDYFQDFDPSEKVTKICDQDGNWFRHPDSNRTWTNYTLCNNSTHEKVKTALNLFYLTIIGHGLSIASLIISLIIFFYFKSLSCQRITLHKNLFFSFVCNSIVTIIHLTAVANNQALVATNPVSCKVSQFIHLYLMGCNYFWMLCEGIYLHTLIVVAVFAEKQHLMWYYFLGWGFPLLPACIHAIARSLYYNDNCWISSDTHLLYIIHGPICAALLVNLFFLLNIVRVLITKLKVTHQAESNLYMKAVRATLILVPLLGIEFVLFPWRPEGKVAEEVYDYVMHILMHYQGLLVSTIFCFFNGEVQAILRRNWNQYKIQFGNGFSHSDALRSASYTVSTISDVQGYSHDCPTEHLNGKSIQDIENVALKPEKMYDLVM
T1 sequence (Q9JJ74 27-148 limits assumed, chain 2 of 2): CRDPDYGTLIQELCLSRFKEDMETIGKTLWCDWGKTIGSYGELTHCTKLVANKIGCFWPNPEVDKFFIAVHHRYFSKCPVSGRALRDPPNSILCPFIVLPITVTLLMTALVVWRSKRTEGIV
T2 sequence (Q16602 23-461, chain 1 of 2): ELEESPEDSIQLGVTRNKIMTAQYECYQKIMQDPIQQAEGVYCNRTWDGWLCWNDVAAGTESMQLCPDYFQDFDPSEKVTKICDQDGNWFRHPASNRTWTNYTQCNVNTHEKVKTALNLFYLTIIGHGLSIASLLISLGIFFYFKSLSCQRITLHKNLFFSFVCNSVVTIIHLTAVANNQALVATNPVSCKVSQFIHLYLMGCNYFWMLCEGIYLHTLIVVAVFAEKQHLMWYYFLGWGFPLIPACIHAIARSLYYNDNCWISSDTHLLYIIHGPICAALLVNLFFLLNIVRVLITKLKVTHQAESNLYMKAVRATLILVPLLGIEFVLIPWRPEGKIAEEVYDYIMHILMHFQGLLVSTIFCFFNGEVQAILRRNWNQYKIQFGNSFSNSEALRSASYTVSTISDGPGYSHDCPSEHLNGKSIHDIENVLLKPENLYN
T2 sequence (O60894 27-148, chain 2 of 2): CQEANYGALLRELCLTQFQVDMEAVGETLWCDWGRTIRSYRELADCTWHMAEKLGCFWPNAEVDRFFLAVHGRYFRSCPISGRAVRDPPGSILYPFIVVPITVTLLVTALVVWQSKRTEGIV

| Binder | IC50 [5] [nM] | IC50 [6] [nM] | other results |
| --- | --- | --- | --- |
| WVTHXLAGLLSXSGGVVRKNFVPTDVGPFAF (Ac-WVTH[Cit]LAGLLS[Cit]SGG VVRK^(20 kDa MeO-PEG)NFVPTDVGPFAF-amide) [SEQ ID NO 791] |  |  | in vitro IC50 (rat ortholog; nM) [1]: 131 nM; IC50 [2]: 3.74 nM; fold loss of potency against SEQ ID NO:31 [3]: ~9 fold; Ki [4]: 1.83 nM |
| WVTHXLAGLLSXSGGVVXKNFVPTDVGPXAF (Ac-WVTH[Cit]LAGLLS[Cit]SGGVV[hArg]K(20 KPEGald)NFVPTDVGP[1-Nal]AF-NH2) [SEQ ID NO 173] |  |  | in vitro IC50 (rat ortholog; nM) [1]: 49.5 nM; Ki [4]: 0.84 nM |
| WVTHXLAGLLSXSGGVVXKNFVPTDVGPFAF (Ac-WVTH[Cit]LAGLLS[Cit]SGGVV[hArg]KNFVPTDVGPFAF-NH2) [SEQ ID NO 739] |  |  | in vitro IC50 (rat ortholog; nM) [1]: 8.9 nM; Ki [4]: 0.53 nM |
| Ac-WVTHRLAGLLSRSGGVVRKNFVPTDVGPFAF-NH2 [SEQ ID NO 7] | 0.13 | 0.13 |  |
| CGGGGGGGVTHRLAGLLSRSGGVVKNNFVPTNVGSKAF-NH2 [SEQ ID NO 2] | 21.1 |  |  |
| Ac-WVTHRLAGLLSRSGGVKRNNFVPTDVGPFAF-NH2 [SEQ ID NO 11] | 0.51 | 0.51 |  |
| Ac-WVTHRLAGLLSRSGGVVCNNFVPTDVGPFAF-NH2 [SEQ ID NO 9] | 2.15 | 2.15 |  |
| Ac-WVTHRLAGLLSRSGGVCRNNFVPTDVGPFAF-NH2 [SEQ ID NO 10] | 0.36 | 0.36 |  |
| Ac-WVTHRLAGLLSRSGGVCRNNFVPTDVGPFAF-NH2 (not fully specified (residue 17); printed as Ac-WVTHRLAGLLSRSGGVCRNNFVPTDVGPFAF-NH2) [SEQ ID NO 18] |  | 0.16 | fold change in potency against SEQ ID NO:1 [7]: ~31 fold |
| Ac-WVTHRLAGLLSRSGGVVRKNFVPTDVGPFAF-NH2 [SEQ ID NO 808] |  |  | in vitro IC50 (rat ortholog; nM) [1]: 5.4 nM |
| WVTHRLAGLLSRSGGVVKNNFVPTNVGSKAF-NH2 [SEQ ID NO 4] | 0.64 |  | fold change in potency against SEQ ID NO:1 [7]: > 7 fold |
| CGGGGGGGVTHRLAGLLSRSGGVVKNNFVPTDVGPFAF-NH2 (not fully specified (residue 1); printed as CGGGGGGGVTHRLAGLLSRSGGVVKNNFVPTDVGPFAF-NH2) [SEQ ID NO 20] |  | 138 | fold loss of potency against SEQ ID NO:3 [7]: > 190 fold |
| Ac-WVTHRLAGLLSRSGGVVRK(20 kDa MeO‑PEG)NFVPTDVGPFAF-NH2 [SEQ ID NO 809] |  |  | in vitro IC50 (rat ortholog; nM) [1]: 6.4 nM; IC50 [2]: 0.32 nM |
| WFVPTDVGPFAF-NH2 [SEQ ID NO 96] | 21.7 |  |  |
| Ac-WVTHRLAGLLSRSGGVVRKNFVPTDVGPFAF-NH2 (not fully specified (residue 19); printed as Ac-WVTHRLAGLLSRSGGVVRKNFVPTDVGPFAF-NH2) [SEQ ID NO 15] |  | 0.42 | fold change in potency against SEQ ID NO:1 [7]: ~12 fold; fold loss of antagonist activity against SEQ ID NO:7 [7]: ~3 fold |
| Ac-VTHRLAGLLSRSGGVVRKNFVPTDVGPFAF-NH2 [SEQ ID NO 6] | 0.7 |  | Ki [4]: 0.04 nM |
| CGGGGGGGVTHRLAGLLSRSGGVVKNNFVPTDVGPFAF-NH2 [SEQ ID NO 3] | 0.72 | 0.72 | fold change in potency against SEQ ID NO:1 [7]: > 6 fold |
| Ac-WVTHRLAGLLSRSGGVVRCNFVPTDVGPFAF-NH2 [SEQ ID NO 8] | 0.5 | 0.5 | fold change in potency against SEQ ID NO:9 [7]: > 4 fold |
| CGGGGGGGPTDVGPFAF-NH2 [SEQ ID NO 45] | 56.6 |  |  |
| Ac-WVTHRLAGLLSRSGGVVRKNFVPTDVGPFAF-NH2 (not fully specified (residue 19); printed as Ac-WVTHRLAGLLSRSGGVVRKNFVPTDVGPFAF-NH2) [SEQ ID NO 16] |  | 0.39 | fold change in potency against SEQ ID NO:1 [7]: ~12 fold; fold loss of antagonist activity against SEQ ID NO:7 [7]: ~3 fold |
